We go through two substances from US20150073033.

Series [1] addresses purified GST-β-catenin (unphosphorylated) (UniProt P35222).
For series [2], the target named is purified recombinant GST-Bub3 (wild type) (UniProt O43684).
The test system of series [3] is purified recombinant His-tagged WT histone H3.

purified GST-β-catenin (unphosphorylated), sequence (P35222 whole entry): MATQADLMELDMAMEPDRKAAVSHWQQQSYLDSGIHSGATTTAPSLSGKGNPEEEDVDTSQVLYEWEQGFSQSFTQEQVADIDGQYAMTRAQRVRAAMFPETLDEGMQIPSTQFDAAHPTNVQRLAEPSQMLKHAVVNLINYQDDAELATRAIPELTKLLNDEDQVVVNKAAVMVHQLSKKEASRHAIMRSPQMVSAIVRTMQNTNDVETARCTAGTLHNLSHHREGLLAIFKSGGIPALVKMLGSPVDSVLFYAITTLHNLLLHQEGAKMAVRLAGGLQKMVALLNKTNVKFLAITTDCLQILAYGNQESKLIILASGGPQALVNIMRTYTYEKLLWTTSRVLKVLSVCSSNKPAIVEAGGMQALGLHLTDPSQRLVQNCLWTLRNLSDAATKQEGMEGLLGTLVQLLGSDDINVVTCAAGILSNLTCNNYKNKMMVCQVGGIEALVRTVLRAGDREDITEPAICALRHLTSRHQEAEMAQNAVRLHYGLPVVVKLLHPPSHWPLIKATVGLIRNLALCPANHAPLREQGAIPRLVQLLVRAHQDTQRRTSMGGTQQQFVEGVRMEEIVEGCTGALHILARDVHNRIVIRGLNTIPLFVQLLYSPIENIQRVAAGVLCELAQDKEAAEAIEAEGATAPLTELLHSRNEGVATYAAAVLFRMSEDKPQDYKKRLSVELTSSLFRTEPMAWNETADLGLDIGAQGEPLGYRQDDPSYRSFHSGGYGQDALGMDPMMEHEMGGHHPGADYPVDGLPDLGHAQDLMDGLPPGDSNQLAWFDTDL
purified recombinant GST-Bub3 (wild type), sequence (O43684 whole entry): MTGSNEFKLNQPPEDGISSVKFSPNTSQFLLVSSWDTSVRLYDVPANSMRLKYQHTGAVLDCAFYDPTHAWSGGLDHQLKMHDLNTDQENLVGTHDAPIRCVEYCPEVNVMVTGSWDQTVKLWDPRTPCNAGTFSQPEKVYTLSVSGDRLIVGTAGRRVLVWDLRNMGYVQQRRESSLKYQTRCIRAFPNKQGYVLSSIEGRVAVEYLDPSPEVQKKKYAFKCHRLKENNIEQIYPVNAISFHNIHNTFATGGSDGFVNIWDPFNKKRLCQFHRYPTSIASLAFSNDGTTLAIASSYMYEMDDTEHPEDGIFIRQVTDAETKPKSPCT

On to purified active c-Src, for which, in series [1], the “in vitro protein kinase assay (Tyr and Y333 phosphorylation by immunoblot)” value is reported as “active c-Src was able to phosphorylate WT β-catenin”.
Turning to “purified recombinant His-PKM2 (wild type)”, the “in vitro protein kinase assay with PEP (anti-phospho-Tyr immunoblot)” value in series [2] is “PKM2, but not PKM2 K367M or PKM1, phosphorylated Bub3”. Also, the “in vitro phosphorylation with PEP (anti-phospho-Thr and phospho-H3-T11 immunoblot)” value in series [3] is “WT PKM2, but not PKM2 K367M kinase-dead mutant (Yang et al., 2011) or PKM1, phosphorylated WT histone H3 but not H3-T11A”.
